Source: PMC11321319, “Shy is a proteobacterial steroid hydratase which catalyzes steroid side chain degradation without requiring a catalytically inert partner domain” (The Journal of Biological Chemistry, 2024)

Experiments:
[1] = test system: T1, C/C=C/C(=O)SCCNC(=O)CCNC(=O)[C@H](O)C(C)(C)COP(=O)(O)OP(=O)(O)OC[C@H]1O[C@@H](n2cnc3c(N)ncnc32)[C@H](O)[C@@H]1OP(=O)(O)O; assay: purified protein; format: biochemical, Comamonas testosteroni; conditions: 100 mM sodium Hepes pH 7.5, 25 °C
T1 construct: C-terminal MaoC domain only (DUF35 removed), His-tagged (pET28a NdeI/HindIII), from E. coli BL21 LOBSTR; homodimer

[2] = test system: T2, C[C@H](/C=C/C(=O)SCCNC(=O)CCNC(=O)[C@H](O)C(C)(C)COP(=O)(O)OP(=O)(O)OC[C@H]1O[C@@H](n2cnc3c(N)ncnc32)[C@H](O)[C@@H]1OP(=O)(O)O)[C@H]1CC[C@H]2[C@@H]3[C@H](O)C[C@@H]4C[C@H](O)CC[C@]4(C)[C@H]3C[C@H](O)[C@]12C; assay: purified protein; format: biochemical, Comamonas testosteroni; conditions: 100 mM sodium Hepes pH 7.5, 25 °C
T2 construct: C-terminal MaoC domain only (DUF35 removed), His-tagged (pET28a NdeI/HindIII), from E. coli BL21 LOBSTR; homodimer

[3] = molecular target: T3, N-terminal His-tagged Sal (side chain aldolase / steroid aldolase) from Comamonas testosteroni KF-1 (Comamonas testosteroni KF-1, UniProt B7X4S8 1-404); assay: SEC; analytical size-exclusion chromatography, Superdex 200, 20 mM sodium Hepes pH 7.5, 0.15 M NaCl; native molecular weight from a standard curve; conditions: both partners purified
T3 construct: gene amplified from genomic DNA; theoretical molecular weight of tagged Sal 46.08 kDa; Cloned into pMCSG7 by ligation independent cloning; source: E. coli BL21 LOBSTR (pMCSG7), coexpressed with untagged Shy or its truncated forms; in cell extract, then purified on Ni-NTA; not shown: His tag, N-terminal, kept
T3 sequence (looked up): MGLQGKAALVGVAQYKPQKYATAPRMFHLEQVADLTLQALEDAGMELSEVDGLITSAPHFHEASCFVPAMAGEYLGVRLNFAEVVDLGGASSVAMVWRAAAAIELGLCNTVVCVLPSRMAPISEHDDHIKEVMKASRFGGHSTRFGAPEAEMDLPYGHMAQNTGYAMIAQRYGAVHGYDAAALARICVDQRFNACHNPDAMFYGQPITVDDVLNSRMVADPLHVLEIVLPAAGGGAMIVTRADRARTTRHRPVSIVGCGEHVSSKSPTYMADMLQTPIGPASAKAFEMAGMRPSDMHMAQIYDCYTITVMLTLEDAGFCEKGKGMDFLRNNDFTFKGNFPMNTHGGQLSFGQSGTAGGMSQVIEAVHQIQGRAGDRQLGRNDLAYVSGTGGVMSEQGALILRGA

purified protein [4] = substrate: C[C@H](/C=C/C(=O)SCCNC(=O)CCNC(=O)[C@H](O)C(C)(C)COP(=O)(O)OP(=O)(O)OC[C@H]1O[C@@H](n2cnc3c(N)ncnc32)[C@H](O)[C@@H]1OP(=O)(O)O)[C@H]1CC[C@H]2[C@@H]3[C@H](O)C[C@@H]4C[C@H](O)CC[C@]4(C)[C@H]3C[C@H](O)[C@]12C; assay: purified protein; format: biochemical, Comamonas testosteroni; conditions: 100 mM sodium Hepes pH 7.5, 25 °C
purified protein [5] = substrate: C/C=C/C(=O)SCCNC(=O)CCNC(=O)[C@H](O)C(C)(C)COP(=O)(O)OP(=O)(O)OC[C@H]1O[C@@H](n2cnc3c(N)ncnc32)[C@H](O)[C@@H]1OP(=O)(O)O; assay: purified protein; format: biochemical, Comamonas testosteroni; conditions: 100 mM sodium Hepes pH 7.5, 25 °C
purified protein [6] = substrate: C[C@H](/C=C/C(=O)SCCNC(=O)CCNC(=O)[C@H](O)C(C)(C)COP(=O)(O)OP(=O)(O)OC[C@H]1O[C@@H](n2cnc3c(N)ncnc32)[C@H](O)[C@@H]1OP(=O)(O)O)[C@H]1CC[C@H]2[C@@H]3CC=C4C[C@@H](O)CC[C@]4(C)[C@H]3CC[C@]12C; assay: purified protein; format: biochemical, Comamonas testosteroni; conditions: 100 mM sodium Hepes pH 7.5, 25 °C
[7] = molecular target: the molecule itself; assay: SEC; analytical size-exclusion chromatography, Superdex 200, 20 mM sodium Hepes pH 7.5, 0.15 M NaCl; native molecular weight from a standard curve
purified protein [8] = substrate: C[C@H](C(O)CC(=O)SCCNC(=O)CCNC(=O)[C@H](O)C(C)(C)COP(=O)(O)OP(=O)(O)OC[C@H]1O[C@@H](n2cnc3c(N)ncnc32)[C@H](O)[C@@H]1OP(=O)(O)O)[C@H]1CC[C@H]2[C@@H]3[C@H](O)C[C@@H]4C[C@H](O)CC[C@]4(C)[C@H]3C[C@H](O)[C@]12C; assay: purified protein; format: biochemical, Comamonas testosteroni; conditions: 100 mM sodium Hepes pH 7.5, 25 °C, 1 mM NAD+, 7 nM Sad (coupling enzyme)

In the case of “ShyMaoC (Comamonas testosteroni KF-1; I309F)”, the Km [1] is reported as 65.0 ± 3.25 µM, the kcat [1] is reported as 0.00555 ± 0.000129 s⁻¹ and the kcat/Km [1] is reported as 85.4 ± 4.71 M⁻¹ s⁻¹. It also gave a Km [2] of 12.3 ± 1.05 µM, a kcat [2] of 67.2 ± 2.77 s⁻¹ and a kcat/Km [2] of 5.46e+06 ± 518000 M⁻¹ s⁻¹.

B1: Untagged Shy (side chain hydratase) from Comamonas testosteroni KF-1 (enzyme, UniProt B7X4S7 1-312, looked up)
chain: MAWNKPLPHPTEISAPYWEGLKAHEVRIQQCDRGHSLFFPRTHCPTCGSRSLKWSKVSGEGTLYSFTVARIPTMPEFTDEMPQALAVIELREGVRINTTMVGVAPEALKVGMEVRPVFDERPGEVTLLRFTAHAGSHPSVIKADAESEVAVVEQSVAAKRRISVKDIEAMKSLVSEEYSPWSNEFTVSQEVIDEFARLSGDDYWIHTDPVQAREKSPFGTTIAHGALVQVLASQLRIPLDYEVVDFNNMVNYGSDRLRFPTPVPSGCKIRARARIKAVEQVRSGVQATMELNIHVVGQDRPAVINDLVILYM
notes: N-terminal DUF35 domain and C-terminal MaoC domain; theoretical molecular weight 34.81 kDa; called 'the full protein' in the discussion; source: E. coli BL21 LOBSTR (pBTLactac, tagless), coexpressed with His-tagged Sal; in cell extract, then copurified on Ni-NTA
For B1, the “stoichiometry N” value [3] was 1 Shy per Sal (2:2 complex), the Km (purified protein [4]) was 6.19 ± 0.446 µM and the kcat (purified protein [4]) was 163 ± 1.5 s⁻¹. It also gave a kcat/Km (purified protein [4]) of 2.64e+07 ± 1.91e+06 M⁻¹ s⁻¹.

B2: ShyMaoC (Comamonas testosteroni KF-1) (protein)
chain: ESEVAVVEQSVAAKRRISVKDIEAMKSLVSEEYSPWSNEFTVSQEVIDEFARLSGDDYWIHTDPVQAREKSPFGTTIAHGALVQVLASQLRIPLDYEVVDFNNMVNYGSDRLRFPTPVPSGCKIRARARIKAVEQVRSGVQATMELNIHVVGQDRPAVINDLVILYM
notes: C-terminal MaoC domain only (DUF35 removed), His-tagged (pET28a NdeI/HindIII), from E. coli BL21 LOBSTR; homodimer
In the case of B2, the Km (purified protein [5]) is reported as 63.6 ± 3.62 µM, the kcat (purified protein [5]) is reported as 0.00412 ± 0.00011 s⁻¹ and the kcat/Km (purified protein [5]) is reported as 64.8 ± 4.07 M⁻¹ s⁻¹. The Km (purified protein [6]) was 6.71 ± 0.588 µM, the kcat (purified protein [6]) was 62.9 ± 2.32 s⁻¹ and the kcat/Km (purified protein [6]) was 9.37e+06 ± 890000 M⁻¹ s⁻¹. The Km (purified protein [4]) was 6.14 ± 0.524 µM, the kcat (purified protein [4]) was 211 ± 6.71 s⁻¹ and the kcat/Km (purified protein [4]) was 3.44e+07 ± 3.13e+06 M⁻¹ s⁻¹.

B3: His-tagged Shy_(MaoC), MaoC domain of Shy (domain or fragment, Comamonas testosteroni KF-1, UniProt B7X4S7 148-312, looked up)
chain: EVAVVEQSVAAKRRISVKDIEAMKSLVSEEYSPWSNEFTVSQEVIDEFARLSGDDYWIHTDPVQAREKSPFGTTIAHGALVQVLASQLRIPLDYEVVDFNNMVNYGSDRLRFPTPVPSGCKIRARARIKAVEQVRSGVQATMELNIHVVGQDRPAVINDLVILYM
notes: theoretical molecular weight of the tagged construct 20.5 kDa; Inserted into pET28a between NdeI and HindIII; source: E. coli BL21 LOBSTR (pET28a), purified (Ni-NTA)
For B3, the “stoichiometry N” value [7] was 2.

B4: Shy-Sal (aldolase site in Sal) (Comamonas testosteroni KF-1) (protein)
chain: MGLQGKAALVGVAQYKPQKYATAPRMFHLEQVADLTLQALEDAGMELSEVDGLITSAPHFHEASCFVPAMAGEYLGVRLNFAEVVDLGGASSVAMVWRAAAAIELGLCNTVVCVLPSRMAPISEHDDHIKEVMKASRFGGHSTRFGAPEAEMDLPYGHMAQNTGYAMIAQRYGAVHGYDAAALARICVDQRFNACHNPDAMFYGQPITVDDVLNSRMVADPLHVLEIVLPAAGGGAMIVTRADRARTTRHRPVSIVGCGEHVSSKSPTYMADMLQTPIGPASAKAFEMAGMRPSDMHMAQIYDCYTITVMLTLEDAGFCEKGKGMDFLRNNDFTFKGNFPMNTHGGQLSFGQSGTAGGMSQVIEAVHQIQGRAGDRQLGRNDLAYVSGTGGVMSEQGALILRGA
notes: same complex as P1: N-terminally His-tagged Sal with untagged full-length Shy, from E. coli BL21 LOBSTR; 160 kDa heterotetramer; with Side chain hydratase Shy, bifunctional OB-fold (DUF35) / MaoC family dehydratase domain-containing protein
B4 gave a Km (purified protein [8]) of 8.12 ± 0.477 µM, a kcat (purified protein [8]) of 37.6 ± 0.8 s⁻¹ and a kcat/Km (purified protein [8]) of 4.63e+06 ± 289000 M⁻¹ s⁻¹.
